# Article PMC4150764, “Structural and functional basis of transcriptional regulation by TetR family protein CprB from S. coelicolor A3(2)” (Nucleic Acids Research, 2014)
# Residue numbers refer to the chain shown, from its start.
# T1: CprB (Streptomyces coelicolor A3(2), UniProt Q7AKF2 1-215)
# T1 sequence: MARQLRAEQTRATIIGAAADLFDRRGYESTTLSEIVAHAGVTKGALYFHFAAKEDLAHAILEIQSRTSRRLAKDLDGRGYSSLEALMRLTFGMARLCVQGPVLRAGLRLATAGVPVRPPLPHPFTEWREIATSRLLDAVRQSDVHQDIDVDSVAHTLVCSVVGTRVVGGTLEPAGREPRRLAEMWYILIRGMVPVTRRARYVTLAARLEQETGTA
# T2: CprB S33A (Streptomyces coelicolor A3(2), UniProt Q7AKF2 1-215, S33A)
# T2 sequence: T1 sequence with S33A
# T3: CprB K43A (Streptomyces coelicolor A3(2), UniProt Q7AKF2 1-215, K43A)
# T3 sequence: T1 sequence with K43A
# B1: CprB (coelicolor pigment regulator protein B) from S. coelicolor A3(2) (natural protein, UniProt O66122 1-215, looked up)
# chain: T1 sequence
# modifications: intermonomer disulfide linkage between cysteine residues at position 159
# notes: CprB, TetR family gamma-butyrolactone receptor, Streptomyces coelicolor A3(2); the cprB gene encodes a 215 amino acid protein, expressed from pET26b(+); Crystallised with the 22-mer consensus DNA (CS); two homodimers in each asymmetric unit; No tag is mentioned; purification was by cation exchange; also called native CprB; source: E. coli BL21(DE3)pLysS, purified (SP Sepharose)
# B2: CS 22-mer (dsDNA)
# DNA 1: ACATACGGGACGCCCCGTTTAT
# DNA 2: ATAAACGGGGCGTCCCGTATGT
# B3: cprA upstream 25-mer (-44 to -20 of cprA-ATG) (dsDNA)
# DNA 1: AACAGGCACACGGTCTGTTGGTTCT
# DNA 2: AGAACCAACAGACCGTGTGCCTGTT
# B4: TetR(OS) 15-mer (dsDNA)
# DNA 1: TCTATCATTGATAGG
# DNA 2: CCTATCAATGATAGA
# B5: OPB 27-mer (-47 to -21 of cprB-ATG) (dsDNA)
# DNA 1: AGGCAGGCGGCACGGTCTGTTGAGTTC
# DNA 2: GAACTCAACAGACCGTGCCGCCTGCCT
# B6: cprB1 59-mer (-58 to 0 of cprB-ATG) (dsDNA)
# DNA 1: GCCGGGGGTAAAGGCAGGCGGCACGGTCTGTTGAGTTCCAGCCCGGGAGAATCCAGCCG
# DNA 2: CGGCTGGATTCTCCCGGGCTGGAACTCAACAGACCGTGCCGCCTGCCTTTACCCCCGGC
# B7: scbR (dsDNA)
# DNA 1: GGAACCGGCAATGCGGTTTGTTCGATC
# DNA 2: GATCGAACAAACCGCATTGCCGGTTCC
# B8: kasOB (dsDNA)
# DNA 1: CAAAACAGACTTGTTAGCTGTTT
# DNA 2: AAACAGCTAACAAGTCTGTTTTG
# B9: kasOA (dsDNA)
# DNA 1: ACAAACCGGTGTGCTGGTTTGTAAAGTCGTGG
# DNA 2: CCACGACTTTACAAACCAGCACACCGGTTTGT
# B10: QacR(OS) 28-mer (dsDNA)
# DNA 1: CTTATAGACCGATCGATCGGTCTATAAG
# DNA 2: CTTATAGACCGATCGATCGGTCTATAAG
# Legend:
# [1] = target: the molecule itself; assay: crystal structure; CprB (6 mg/ml) co-crystallised with annealed 22-mer CS DNA, 1:1.2 (dimer of CprB:CS), hanging drop, 22°C, 0.2 M KCl, 0.02 M MgCl2, 0.05 M Tris-HCl pH 7.5, 10% PEG 4000; 3.25 Å
# CprB [2] = target: T1, CprB; assay: EMSA; EMSA: 10 mM Tris-HCl pH 7.8, 50 mM KCl, 1 mM EDTA, 1 mM DTT, 5% glycerol, hemoglobin, poly(dI-dC), 20 C, ~1 nM DNA; ITC: 50 mM phosphate pH 7, 150 mM NaCl, 25 C; details: protein: recombinant, chain copies: 4, blunt
# CprB [3] = target: T1, CprB; assay: ITC; n = 0.52 CS per CprB dimer, 25 C; EMSA: 10 mM Tris-HCl pH 7.8, 50 mM KCl, 1 mM EDTA, 1 mM DTT, 5% glycerol, hemoglobin, poly(dI-dC), 20 C, ~1 nM DNA; ITC: 50 mM phosphate pH 7, 150 mM NaCl, 25 C; details: protein: recombinant; chain copies: 4; label: 5'-32P (EMSA); none (ITC, crystal); blunt
# CprB [4] = target: T1, CprB; assay: EMSA; similar trend to OPB; EMSA: 10 mM Tris-HCl pH 7.8, 50 mM KCl, 1 mM EDTA, 1 mM DTT, 5% glycerol, hemoglobin, poly(dI-dC), 20 C, ~1 nM DNA; ITC: 50 mM phosphate pH 7, 150 mM NaCl, 25 C; details: protein: recombinant; chain copies: 4; label: 5'-32P; blunt
# CprB S33A = target: T2, CprB S33A; assay: EMSA; negligible effect; EMSA: 10 mM Tris-HCl pH 7.8, 50 mM KCl, 1 mM EDTA, 1 mM DTT, 5% glycerol, hemoglobin, poly(dI-dC), 20 C, ~1 nM DNA; ITC: 50 mM phosphate pH 7, 150 mM NaCl, 25 C; details: protein: recombinant; chain copies: 2; label: 5'-32P (EMSA); none (ITC); blunt
# CprB K43A = target: T3, CprB K43A; assay: as above; details: protein: recombinant; chain copies: 2; label: 5'-32P (EMSA); none (ITC); blunt
# CprB [5] = target: T1, CprB; assay: ITC; two-site model, Kd1, n = 0.26, 25 C; EMSA: 10 mM Tris-HCl pH 7.8, 50 mM KCl, 1 mM EDTA, 1 mM DTT, 5% glycerol, hemoglobin, poly(dI-dC), 20 C, ~1 nM DNA; ITC: 50 mM phosphate pH 7, 150 mM NaCl, 25 C; details: protein: recombinant; chain copies: 4; label: 5'-32P (EMSA); none (ITC); blunt
# CprB [6] = target: T1, CprB; assay: EMSA; range given for scbR, kasOA, kasOB together; EMSA: 10 mM Tris-HCl pH 7.8, 50 mM KCl, 1 mM EDTA, 1 mM DTT, 5% glycerol, hemoglobin, poly(dI-dC), 20 C, ~1 nM DNA; ITC: 50 mM phosphate pH 7, 150 mM NaCl, 25 C; details: protein: recombinant; chain copies: 4; label: 5'-32P; blunt
# CprB [7] = target: T1, CprB; assay: EMSA; about five-fold weaker than own upstream sequence; EMSA: 10 mM Tris-HCl pH 7.8, 50 mM KCl, 1 mM EDTA, 1 mM DTT, 5% glycerol, hemoglobin, poly(dI-dC), 20 C, ~1 nM DNA; ITC: 50 mM phosphate pH 7, 150 mM NaCl, 25 C; details: protein: recombinant; chain copies: 4; label: 5'-32P; blunt, self-complementary
binder,measurement,setting,value
B1,stoichiometry N,[1],2
B2,Kd,"CprB [2]; label: 5'-32P (EMSA), none (ITC, crystal)",~374 nM
same,Kd,CprB [3],200 nM
B3,binding result,CprB [4],binds
B4,binding result,CprB [2]; label: 5'-32P,no binding
B5,Kd,"CprB [2]; label: 5'-32P (EMSA), none (ITC)",~274 nM
same,binding result,CprB S33A,binds
same,binding result,CprB K43A,binds
same,Kd,CprB [5],330 nM
B6,Kd,CprB [2]; label: 5'-32P,~400 nM
B7,Kd,CprB [6],~1060 nM
B8,Kd,CprB [6],~1060 nM
B9,Kd,CprB [6],~1060 nM
B10,Kd,CprB [7],~1500 nM
